Measured values taken from US20240002844.

Target: T1, recombinant SHN3 (rSHN3, 50-930 aa) (UniProt A2A884)
T1 sequence: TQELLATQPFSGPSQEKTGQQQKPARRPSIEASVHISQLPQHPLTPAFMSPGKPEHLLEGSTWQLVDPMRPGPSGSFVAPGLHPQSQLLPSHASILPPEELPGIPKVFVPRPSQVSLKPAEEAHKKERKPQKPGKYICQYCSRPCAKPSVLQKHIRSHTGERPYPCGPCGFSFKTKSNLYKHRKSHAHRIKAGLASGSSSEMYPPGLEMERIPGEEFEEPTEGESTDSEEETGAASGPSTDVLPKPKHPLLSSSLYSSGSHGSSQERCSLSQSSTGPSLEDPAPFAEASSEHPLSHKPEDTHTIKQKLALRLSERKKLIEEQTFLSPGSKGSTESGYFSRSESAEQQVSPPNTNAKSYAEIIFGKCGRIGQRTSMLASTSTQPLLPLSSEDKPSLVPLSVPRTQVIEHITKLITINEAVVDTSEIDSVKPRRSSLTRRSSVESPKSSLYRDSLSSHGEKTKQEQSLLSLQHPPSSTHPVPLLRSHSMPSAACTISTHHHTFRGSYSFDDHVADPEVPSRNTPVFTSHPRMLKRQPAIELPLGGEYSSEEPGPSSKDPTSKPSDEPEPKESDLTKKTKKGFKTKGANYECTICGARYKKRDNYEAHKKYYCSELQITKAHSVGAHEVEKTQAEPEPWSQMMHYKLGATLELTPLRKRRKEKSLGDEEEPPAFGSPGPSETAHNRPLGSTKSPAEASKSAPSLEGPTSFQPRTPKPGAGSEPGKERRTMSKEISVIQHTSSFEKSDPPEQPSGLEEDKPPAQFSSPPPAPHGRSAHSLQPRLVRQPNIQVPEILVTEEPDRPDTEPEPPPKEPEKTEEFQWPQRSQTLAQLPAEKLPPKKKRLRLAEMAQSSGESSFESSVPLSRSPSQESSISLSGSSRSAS

recombinant ERK2 (rERK2), sequence (P28482 2-360): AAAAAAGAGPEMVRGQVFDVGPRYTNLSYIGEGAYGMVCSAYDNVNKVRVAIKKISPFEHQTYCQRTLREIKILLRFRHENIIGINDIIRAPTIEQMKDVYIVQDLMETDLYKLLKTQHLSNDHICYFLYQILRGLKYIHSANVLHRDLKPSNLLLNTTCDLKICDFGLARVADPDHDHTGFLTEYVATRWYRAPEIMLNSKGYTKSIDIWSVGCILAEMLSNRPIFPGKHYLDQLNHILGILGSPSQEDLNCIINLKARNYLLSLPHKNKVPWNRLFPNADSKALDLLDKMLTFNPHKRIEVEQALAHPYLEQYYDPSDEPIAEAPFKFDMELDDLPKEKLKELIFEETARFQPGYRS

recombinant ERK2 (rERK2) was tested, and the “in vitro kinase assay: rERK2-induced phosphorylation of rSHN3 (FIG. 9C)” value was “recombinant SHN3 (rSHN3) was phosphorylated by recombinant ERK2 (rERK2)”, the “in vitro kinase assay: rERK2-induced phosphorylation of the ERK substrate ELK1 (FIG. 9C)” value was “rSHN3 inhibited rERK2-induced phosphorylation of the ERK substrate ELK1” and the “phospho-spectrometry analysis of rERK and rSHN3 (FIG. 9D)” value was “rERK phosphorylates rSHN3 at two serines (810 and 811 aa), one threonine (851 aa), and two serines (911 and 913 aa)”.
